Experimental data taken from patent publication US20150307603A1 (MODIQUEST B V, published 2015).
Non-standard residues stand in square brackets, D forms with d. No end group written: not given here. Cit = NC(=O)NCCC[C@H](N)C(=O)O

Legend:
[1] = molecular target: T1, peptide no. 2 (human histone 2A) (human, also: biotin-labelled); experiment: ELISA, Ab 10 ug/well
T1 construct: also called peptide 2
T1 peptide: AKAKS[Cit]SSRAGL
Description: (§1) Biotin and citrulline-containing peptides derived from histone 2A were immobilized on NEUTRAVIDIN®-coated 96-well ELISA plates (0.3 μg/well). CFC-1 and CFC-0 were coated at the same concentration and served as positive and negative controls, respectively, for specific anti-citrulline reactivity and as coating controls. Non-coated wells were used to test for aspecific binding of the antibodies. […] Detection of bound anti-citrulline antibodies was performed by incubating the wells with rabbit anti-human HRP (1:2000) for 1 hour at RT followed by incubation with TMB substrate. The resulting OD (y-axis) is a measure for antibody binding.

[2] = molecular target: T2, peptide no. 5 (human histone 2A) (human, also: biotin-labelled); experiment: ELISA, Ab 10 ug/well
T2 construct: also called peptide 5
T2 peptide: VGRVH[Cit]LLRKGN
Description: as §1

[3] = molecular target: T3, peptide no. 11 (human histone 2A) (human, also: biotin-labelled); experiment: ELISA, Ab 10 ug/well
T3 construct: also called peptide 11
T3 peptide: LQLAI[Cit]NDEELN
Description: as §1

[4] = molecular target: T4, peptide no. 7 (human histone 2A) (human, also: biotin-labelled); experiment: ELISA, Ab 10 ug/well
T4 construct: also called peptide 7
T4 peptide: GNYSE[Cit]VGAGAP
Description: as §1

[5] = molecular target: T5, peptide no. 3 (human histone 2A) (human, also: biotin-labelled); experiment: ELISA, Ab 10 ug/well
T5 construct: also called peptide 3
T5 peptide: KSRSS[Cit]AGLQFP
Description: as §1

[6] = molecular target: T6, peptide no. 8 (human histone 2A) (human, also: biotin-labelled); experiment: ELISA, Ab 10 ug/well
T6 construct: also called peptide 8
T6 peptide: AGNAA[Cit]DNKKTR
Description: as §1

[7] = molecular target: T7, peptide no. 1 (human histone 2A) (human, also: biotin-labelled); experiment: ELISA, Ab 10 ug/well
T7 construct: also called peptide 1; AAASGXGKQGGK
T7 peptide: AAASG[Cit]GKQGGK
Description: as §1

[8] = molecular target: T8, peptide no. 12 (human histone 2A) (human, also: biotin-labelled); experiment: ELISA, Ab 10 ug/well
T8 construct: also called peptide 12
T8 peptide: NKLLG[Cit]VTIAQG
Description: as §1

[9] = molecular target: T9, peptide no. 10 (human histone 2A) (human, also: biotin-labelled); experiment: ELISA, Ab 10 ug/well
T9 construct: also called peptide 10
T9 peptide: TRIIP[Cit]HLQLAI
Description: as §1

[10] = molecular target: T10, peptide no. 6 (human histone 2A) (human, also: biotin-labelled); experiment: ELISA, Ab 10 ug/well
T10 construct: also called peptide 6
T10 peptide: VHRLL[Cit]KGNYSE
Description: as §1

[11] = molecular target: T11, peptide no. 4 (human histone 2A) (human, also: biotin-labelled); experiment: ELISA, Ab 10 ug/well
T11 construct: also called peptide 4
T11 peptide: QFPVG[Cit]VHRLLR
Description: as §1

CFC-1 [12] = molecular target: T12, CFC-1; experiment: ELISA, Ab 10 ug/well
T12 construct: Positive control for anti-citrulline reactivity; also called cfc1 XG; Cfc1-peptide
Description: as §1

[13] = molecular target: T13, peptide no. 9 (human histone 2A) (human, also: biotin-labelled); experiment: ELISA, Ab 10 ug/well
T13 construct: also called peptide 9
T13 peptide: DNKKT[Cit]IIPRHL
Description: as §1

[14] = molecular target: T14, human recombinant histone 2B (human); experiment: ELISA, Ab 0.016 ug/well
T14 construct: Non-deiminated; also called H2B
Description: (§2) The resulting OD (y-axis) is a measure for antibody binding. H1-recombinant histone 1; H1/p2-huPAD2 recombinant histone 1; H1/p4-huPAD4 recombinant histone 1, and so forth (x-axis).

[15] = molecular target: T15, huPAD2-deiminated human recombinant histone 2B (human); experiment: ELISA, Ab 0.016 ug/well
T15 construct: also called H2B/p2
Description: as §2

[16] = molecular target: T16, huPAD4-deiminated human recombinant histone 3 (human); experiment: ELISA, Ab 0.016 ug/well
T16 construct: also called H3/p4
Description: as §2

[17] = molecular target: T17, huPAD4-deiminated human recombinant histone 2A (human); experiment: ELISA, Ab 0.016 ug/well
T17 construct: also called H2A/p4; histone 2A/p4
Description: as §2

[18] = molecular target: T18, huPAD4-deiminated human recombinant histone 2B (human); experiment: ELISA, Ab 0.016 ug/well
T18 construct: also called H2B/p4
Description: as §2

[19] = molecular target: T19, huPAD2-deiminated human recombinant histone 2A (human); experiment: ELISA, Ab 0.016 ug/well
T19 construct: also called H2A/p2; histone 2A/p2
Description: as §2

[20] = molecular target: T20, huPAD2-deiminated human recombinant histone 3 (human); experiment: ELISA, Ab 0.016 ug/well
T20 construct: also called H3/p2; histone 3/p2
Description: as §2

[21] = molecular target: human recombinant histone 4 (human, UniProt P62805 2-103); experiment: ELISA, Ab 0.016 ug/well
Description: as §2

CFC-1 [22] = molecular target: T12, CFC-1; experiment: ELISA, Ab 0.016 ug/well
Description: as §2

[23] = molecular target: T21, human recombinant histone 2A (human); experiment: ELISA, Ab 0.016 ug/well
T21 construct: Non-deiminated; also called H2A
Description: as §2

msFibβ XG = molecular target: T22, msFibβ XG (mouse, also: biotin-labelled); experiment: ELISA, Ab 0.0032 ug/well
T22 construct: also called mouse fibrinogen β peptide
T22 peptide: EPTDSLDA[Cit]GHRPVDRR
Description: as §1, with “fibrinogen and vimentin” for “histone 2A”
Biotin-labeled and citrulline-containing fibrinogen and vimentin peptides (Table 5) were also tested for reactivity with the therapeutic antibodies. Peptides were coated on 96-well NEUTRAVIDIN®-ELISA plates.

[24] = molecular target: T4, peptide no. 7 (human histone 2A); experiment: ELISA, Ab 2 ug/well
Description: as §1

CFC-1 [25] = molecular target: T12, CFC-1; experiment: ELISA, Ab 2 ug/well
Description: as §1

[26] = molecular target: PREDICTED: similar to 60S ribosomal protein L29 (Cell surface heparin-binding protein HIP) [Homo sapiens] (Homo sapiens); experiment: IP of deiminated HEK293 lysate + MS emPAI; reference RhmAb2.101
Description: (§3) Beads were subjected to three washes with 1 ml IPP500, one wash with 1 ml IPP150 (10 mM Tris/HCl pH 8.0, 150 mM NaCl, 0.1% NP40 and 0.1% TWEEN®-20), and subsequently incubated at room temperature with 300 p1 deiminated HEK293 lysate for 2 hours under constant rotation. Beads were washed three times with 1 ml of IPP150, after which a small part has been used for SDS-PAGE electrophoresis to determine if the IP procedure with the HEK293 cells was successful.
(§4) The exponentially modified protein abundance index (emPAI) was calculated for all validated proteins.

[27] = molecular target: ribosomal protein L29 [Homo sapiens] (Homo sapiens); experiment: as above
Description: as §3, §4

B1: RhmAb2.102 (antibody, human IgG1, lambda)
heavy: not shown
light: QSVLTQPPSMSAAPGQKVTISCSGSSSNIGNNYVSWYQQVPGTAPKLLIYDDNKRPSGIPGRFSGSKSATSATLGITGLQAGDEADYYCGSWDDNLSVVLFGGGTKLTVLGQPKAAPSVTLFPPSSEELQANKATLVCLISDFYPGAVTVAWKADSSPVKAGVETTTPSKQSNNKYAASSYLSLTPEQWKSHRSYSCQVTHEGSTVEKTVAPTECS
notes: Human IgG1 lambda; also called Rhm2.102
- OD [1]: 0.552 OD450
- OD [2]: 0.239 OD450
- OD [3]: 0.088 OD450
- OD [4]: 0.08 OD450
- OD [5]: 0.619 OD450
- OD [6]: 0.082 OD450
- OD [7]: 3.11 OD450
- OD [8]: 0.083 OD450
- OD [9]: 0.091 OD450
- OD [10]: 1.41 OD450
- OD [11]: 2.06 OD450
- OD (CFC-1 [12]): 3.27 OD450
- OD [13]: 0.09 OD450
- OD [14]: 0.065 OD450
- OD [15]: 0.052 OD450
- OD [16]: 0.076 OD450
- OD [17]: 0.426 OD450
- OD [18]: 0.052 OD450
- OD [19]: 0.628 OD450
- OD [20]: 0.155 OD450
- OD [21]: 0.061 OD450
- OD (CFC-1 [22]): 0.702 OD450
- OD [23]: 0.057 OD450
- OD (msFibβ XG): 0.12 OD450
- OD [24]: 0.059 OD450
- OD (CFC-1 [25]): 3.21 OD450
- Ratio 102/101 (emPAI) [26]: 1 ratio
- Ratio 102/101 (emPAI) [27]: 0.5 ratio
